Article PMC10180154, “Screening and Identification of ssDNA Aptamers for Low-Density Lipoprotein (LDL) Receptor-Related Protein 6”

Target: LRP6 (recombinant human LRP-6, Fc chimera) (Homo sapiens, UniProt O75581 20-1370)
Experiment: SPR; CE-LIF: incubation pH 8.0, 0.155% glutathione, 0.395% Tris-HCl; running buffer 50 mM borate pH 7.6, 20 kV, 25 C (CE-SELEX conditions). SPR: PBST pH 7.4, 0.05% Tween-20, 25 C, protein amine-coupled on CM5. AuNP: room temperature, then 0.9 M NaCl.
Settings: protein: commercial; tags: Fc chimera; chain copies: 2

Chain of LRP6 (recombinant human LRP-6, Fc chimera) (O75581 20-1370, change not shown): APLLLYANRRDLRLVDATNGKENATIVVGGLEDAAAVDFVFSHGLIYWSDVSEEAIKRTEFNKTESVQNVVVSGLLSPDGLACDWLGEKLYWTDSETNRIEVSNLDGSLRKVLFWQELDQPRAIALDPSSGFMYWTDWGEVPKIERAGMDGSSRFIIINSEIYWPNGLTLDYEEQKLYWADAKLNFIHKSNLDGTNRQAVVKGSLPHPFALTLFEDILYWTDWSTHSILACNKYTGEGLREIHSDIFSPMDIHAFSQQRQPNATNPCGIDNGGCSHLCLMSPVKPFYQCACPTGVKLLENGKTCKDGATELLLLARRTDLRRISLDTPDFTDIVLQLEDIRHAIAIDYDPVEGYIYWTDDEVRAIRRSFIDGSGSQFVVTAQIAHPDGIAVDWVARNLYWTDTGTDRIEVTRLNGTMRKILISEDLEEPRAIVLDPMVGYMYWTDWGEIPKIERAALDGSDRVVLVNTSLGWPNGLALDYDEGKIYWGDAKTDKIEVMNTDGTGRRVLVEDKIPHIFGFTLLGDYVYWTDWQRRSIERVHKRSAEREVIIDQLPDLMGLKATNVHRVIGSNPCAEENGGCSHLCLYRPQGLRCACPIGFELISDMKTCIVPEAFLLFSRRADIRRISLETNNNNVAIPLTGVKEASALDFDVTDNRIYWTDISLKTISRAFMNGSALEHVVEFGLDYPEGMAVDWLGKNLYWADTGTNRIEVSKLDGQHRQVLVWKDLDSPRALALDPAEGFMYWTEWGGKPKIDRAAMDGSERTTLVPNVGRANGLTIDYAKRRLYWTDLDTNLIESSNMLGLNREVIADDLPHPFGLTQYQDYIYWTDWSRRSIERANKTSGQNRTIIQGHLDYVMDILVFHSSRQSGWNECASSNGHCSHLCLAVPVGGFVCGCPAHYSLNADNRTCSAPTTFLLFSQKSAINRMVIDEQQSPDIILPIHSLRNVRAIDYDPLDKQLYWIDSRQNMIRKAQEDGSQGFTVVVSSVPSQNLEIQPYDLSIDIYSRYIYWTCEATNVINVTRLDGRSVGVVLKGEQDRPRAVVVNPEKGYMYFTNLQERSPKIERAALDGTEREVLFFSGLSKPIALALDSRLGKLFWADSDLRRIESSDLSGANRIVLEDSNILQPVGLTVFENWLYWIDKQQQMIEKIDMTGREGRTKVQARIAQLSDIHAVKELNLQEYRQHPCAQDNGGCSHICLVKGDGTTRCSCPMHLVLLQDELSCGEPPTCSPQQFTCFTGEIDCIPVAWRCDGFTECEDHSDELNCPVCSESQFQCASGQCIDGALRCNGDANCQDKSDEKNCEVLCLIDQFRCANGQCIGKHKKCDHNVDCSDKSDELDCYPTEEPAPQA

Row | Binder | binding result | Kd [nM]
1 | MutLRP6-A2 (ssDNA) DNA: AGCAGCACTTAGGTCAGATGGCCACATTAGTCTCACCACTACCTTTTTTCCTACCGCCGCCCTATGCGTGCTACCGTGAA | no binding | 
2 | MutLRP6-A3 (ssDNA) DNA: AGCAGCACAGAGGTTATTTGGCAGCTAAGCAGGCGGCTCACAAAACCATTCGCATGCGGCCCTATGCGTGCTTTTGTGAA |  | 2680
